Source: patent publication US20160143256A1

Target: mouse Mc4r (melanocortin 4 receptor), untagged expression construct (mouse) (UniProt P56450)
Test: cell-based or functional assay

UniProt P56450, sequence (P56450 whole entry): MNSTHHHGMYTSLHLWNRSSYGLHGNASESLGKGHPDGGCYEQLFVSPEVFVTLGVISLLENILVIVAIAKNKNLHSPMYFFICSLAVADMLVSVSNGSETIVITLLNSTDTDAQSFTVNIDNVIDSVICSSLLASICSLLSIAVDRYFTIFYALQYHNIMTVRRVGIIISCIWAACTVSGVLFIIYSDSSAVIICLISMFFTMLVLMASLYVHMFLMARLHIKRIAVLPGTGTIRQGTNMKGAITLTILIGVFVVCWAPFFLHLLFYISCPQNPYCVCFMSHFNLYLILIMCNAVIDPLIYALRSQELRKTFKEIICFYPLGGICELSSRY

mouse Mrap2 (melanocortin 2 receptor accessory protein 2), untagged expression construct (from UniProt D3Z1Q2 1-207)
αMSH-induced increase above basal PKA activity (CRELuc, CHO cells co-transfected with Mc4r and Mrap2, 0-10 nM αMSH): 5 fold

Mrap2delE3 (mouse Mrap2 with exon 3 deleted) (from UniProt D3Z1Q2 1-55)
αMSH-induced increase above basal PKA activity (CRELuc, CHO cells co-transfected with Mc4r and Mrap2delE3): < 2 fold

α-melanocyte stimulating hormone (from UniProt P01189 138-150) (peptide)
αMSH-induced increase above basal PKA activity (CRELuc, CHO cells transfected with Mc4r alone): < 2 fold
